Measured values published in PMC3020594.

How the values were obtained:
[1] = substrate: Nc1ccn([C@H]2C[C@H](O)[C@@H](CO)O2)c(=O)n1; assay: purified protein; settings: zinc active site
[2] = substrate: Nc1ncn([C@H]2C[C@H](O)[C@@H](CO)O2)c(=O)n1; assay: purified protein; type: biochemical, Homo sapiens; settings: zinc active site

B1: human cytidine deaminase (CDA) (Homo sapiens; Y33G) (protein)
chain: MAQKRPACTLKPECVQQLLVCSQEAKKSAYCPGSHFPVGAALLTQEGRIFKGCNIENACYPLGICAERTAIQKAVSEGYKDFRAIAIASDMQDDFISPCGACRQVMREFGTNWPVYMTKPDGTYIVMTVQELLPSSFGPEDLQKTQ
Q: With B1 as the protein, how does the Km [1] read?
A: 47.6 µM

Q: What about the Vmax [1] of the same protein?
A: 0.127 µmol/min/mg

Q: What about the Km [2] of the same protein?
A: 349.0 µM

Q: What about the Vmax [2] of the same protein?
A: 0.174 µmol/min/mg
